One molecule from US20110027820A1 (GEORGIA TECH RESEARCH, published 2011) can be followed below.

The target of this assay is T1, Gal4 DNA binding domain (DBD) fused to the RXR ligand binding domain (GBD:RXR) (yeast; human, UniProt P04386 1-147; P19793 203-462, limits assumed).
T1 construct: Expressed inside yeast (PJ69-4A or MaV103) from plasmid pGBDRXR; The order DBD then LBD follows the name GBD:RXR; also called wild-type GBD:RXR; product of pGBDRXR
As to the kind of experiment: yeast two-hybrid type growth selection (chemical complementation), PJ69-4A on SC-Ade plates with 10^-5 M 9cRA.

Protocol: The same colony was used for streaking on all the plates, ending with a SC plate to confirm efficient transfer of the cells to each plate. Both selective and non-selective plates were incubated at 30° C. for two days. Each set of genetic selection plates was replicated at least once.

B1: Gal4 activation domain (GAD) without a coactivator domain (other, yeast, UniProt P04386 768-881, looked up)
chain: ANFNQSGNIADSSLSFTFTNSSNGPNLITTQTNSQALSQPIASSNVHDNFMNNEITASKIDDGNNSKPLSPGWTDQTAYNAFGITTGMFNTTTMDDVYNYLFDDEDTPPNPKKE
notes: range 768-881; Control expressed from pGAD10; also called Gal4 AD only; product of pGAD10
On to B1, for which the binding result is reported as “no binding”.
